From publication PMC7214410, “A deubiquitylase with an unusually high-affinity ubiquitin-binding domain from the scrub typhus pathogen Orientia tsutsugamushi” (Nature Communications, 2020)
Changes are numbered by the printed parent chain. In names and notes the source's numbering stands.

Legend:
Settings in all cases: both partners purified
[1] = biological target: T1, human ubiquitin (His tag cleaved, for the co-crystal) (human, UniProt P0CG48 1-76); test: crystal structure
T1 construct: also called free ubiquitin; UbS1; source: E. coli BL21(DE3), purified (Ni-NTA, TEV cleavage, HiTrap S, Superdex 75)

untagged ubiquitin [2] = biological target: T2, untagged ubiquitin (UniProt P0CG48 1-76); test: ITC
T2 construct: also called mono-ubiquitin; Mono Ub; source: E. coli, purified (heated to 85 °C, SP-Sepharose, Superdex 75)

untagged ubiquitin [3] = biological target: T2, untagged ubiquitin; test: ITC; remark: listed apart in the source
6His-ubiquitin = biological target: T3, 6His-ubiquitin (human, UniProt P0CG48 1-76); test: pull-down; GST-tagged UBD (25 µM) mixed with His-tagged ubiquitin (75 µM) in 25 mM Tris-HCl pH 8.0, 100 mM NaCl, 0.1 mM TCEP; glutathione sepharose 4B, 1 h at 2 °C; eluted with glutathione, Coomassie
T3 construct: also called His-tagged human ubiquitin; His-tagged ubiquitin; source: E. coli BL21(DE3), purified (Ni-NTA)

B1: OtDUB_(1–259) (domain or fragment)
chain: GMANDQDLSNPEYLYTEDDINQLLKHYLGLDDRISIIQHVALNESLLLKQTLHQVLSDIFSGMQEKAVIPLHTGNNHWVAMAIKKGMNDDIVISYNDPMGVSIDDKVTLINCIKELCPGAKINDLQTVQQTNVYDCGPFVVDNLIKMSQGQPILSTEEAKQQAQNIRQSQVNFLSENRMITSAAAALADTLLKNNNRITEGVLVDRIFDNKILSVQEKQQLLNNLLDNHIKENKSLTKESLTRMLASTHFVQQQANVLLN
notes: also called OTT_1962 DUB domain with VR-1/UBD; DUB-UBD segment; source: E. coli BL21(DE3), purified (Ni-NTA, TEV cleavage, HiTrap Q, Superdex 75)
- binding result [1]: binds

B2: OtDUB_(170–264) (the UBD) (domain or fragment)
chain: VNFLSENRMITSAAAALADTLLKNNNRITEGVLVDRIFDNKILSVQEKQQLLNNLLDNHIKENKSLTKESLTRMLASTHFVQQQANVLLNEKFNK
notes: source: E. coli Rosetta DE3, purified (glutathione resin, SEC)
- Kd (untagged ubiquitin [2]): 0.0053 ± 0.0039 µM

B3: OtDUB_(1–177)-C135A (domain or fragment)
chain: MANDQDLSNPEYLYTEDDINQLLKHYLGLDDRISIIQHVALNESLLLKQTLHQVLSDIFSGMQEKAVIPLHTGNNHWVAMAIKKGMNDDIVISYNDPMGVSIDDKVTLINCIKELCPGAKINDLQTVQQTNVYDAGPFVVDNLIKMSQGQPILSTEEAKQQAQNIRQSQVNFLSENR
- Kd (untagged ubiquitin [3]): 6.3 ± 0.2 µM

B4: GST-UBD_(170–259) (domain or fragment)
chain: VNFLSENRMITSAAAALADTLLKNNNRITEGVLVDRIFDNKILSVQEKQQLLNNLLDNHIKENKSLTKESLTRMLASTHFVQQQANVLLN
notes: also called GST-tagged UBD; OtDUBUBD; source: E. coli BL21(DE3), purified (Ni-NTA, GSTrap HP)
- binding result (6His-ubiquitin): binds

B5: GST-UBD_(170–259) F207D (domain or fragment)
chain: B4 chain with F38D
notes: source: E. coli BL21(DE3), purified (Ni-NTA, GSTrap HP)
- binding result (6His-ubiquitin): binds

B6: GST-UBD_(170–259) N222A/D226A (domain or fragment)
chain: B4 chain with N53A, D57A
notes: also called charge-neutralizing mutant; source: E. coli BL21(DE3), purified (Ni-NTA, GSTrap HP)
- binding result (6His-ubiquitin): binds

B7: GST-UBD_(170–259) D204A/D208A (domain or fragment)
chain: B4 chain with D35A, D39A
notes: as for B6
- binding result (6His-ubiquitin): binds
